From patent publication US20190248900A1 (Y BIOLOGICS, published 2019) come the findings set out here.

Positions count from the first letter of the chain named.

Experiment [1] deals with T1, human PD-1 (NM_005018.2) over-expressed on cells (human, UniProt Q15116 25-288). As to the kind of experiment: cell-based or functional assay.
Experiment [2] concerns the target T1, human PD-1 (NM_005018.2) over-expressed …. As to the kind of experiment: cell-based or functional assay. The source holds these as a separate data set.
The next experiment has as its target T2, PD1-hFc (human, UniProt Q15116 25-170).
T2 construct: extracellular domain; also called PD1-hFc protein; Human PD-1-Fc (S1420, Y-Biologics)
As to the kind of experiment: SPR ProteOn XPR36, PD1-hFc immobilised, antibody as analyte. The protocol:
A ProteOn XPR36 (BioRad) instrument was used. The GLC sensor chip (BioRad) was mounted on the instrument and washed with PBST buffer, and the carboxymethyldextran surface was activated with an EDC/sulfo-NHS mixed solution. PD1-hFc dissolved at a concentration of 5 ug/ml in a 10 mM sodium acetate buffer solution (pH 5.0) was injected and immobilized on the GLC sensor chip.
In order to deactivate the activated carboxyl groups that remain unreacted with the PD1 protein, 1 M ethanolamine was flowed and 10 mM glycine (pH 2.0) was injected in order to wash proteins that remain unbound to the sensor chip.
The equilibrium dissociation constant (KD) was calculated by plotting and fitting the sensogram data in the equilibrium state depending on concentration.

Experiment [3] deals with T3, M11.
T3 construct: also called PD1 mutant M11
As to the kind of experiment: ELISA, 1 ug/ml. (An ELISA detects its analyte on a solid surface through an enzyme-linked reagent.)

Experiment [4] addresses T4, ITGA6-Fc.
T4 construct: Fc fusion
T4 sequence (P23229 whole entry, species assumed, looked up): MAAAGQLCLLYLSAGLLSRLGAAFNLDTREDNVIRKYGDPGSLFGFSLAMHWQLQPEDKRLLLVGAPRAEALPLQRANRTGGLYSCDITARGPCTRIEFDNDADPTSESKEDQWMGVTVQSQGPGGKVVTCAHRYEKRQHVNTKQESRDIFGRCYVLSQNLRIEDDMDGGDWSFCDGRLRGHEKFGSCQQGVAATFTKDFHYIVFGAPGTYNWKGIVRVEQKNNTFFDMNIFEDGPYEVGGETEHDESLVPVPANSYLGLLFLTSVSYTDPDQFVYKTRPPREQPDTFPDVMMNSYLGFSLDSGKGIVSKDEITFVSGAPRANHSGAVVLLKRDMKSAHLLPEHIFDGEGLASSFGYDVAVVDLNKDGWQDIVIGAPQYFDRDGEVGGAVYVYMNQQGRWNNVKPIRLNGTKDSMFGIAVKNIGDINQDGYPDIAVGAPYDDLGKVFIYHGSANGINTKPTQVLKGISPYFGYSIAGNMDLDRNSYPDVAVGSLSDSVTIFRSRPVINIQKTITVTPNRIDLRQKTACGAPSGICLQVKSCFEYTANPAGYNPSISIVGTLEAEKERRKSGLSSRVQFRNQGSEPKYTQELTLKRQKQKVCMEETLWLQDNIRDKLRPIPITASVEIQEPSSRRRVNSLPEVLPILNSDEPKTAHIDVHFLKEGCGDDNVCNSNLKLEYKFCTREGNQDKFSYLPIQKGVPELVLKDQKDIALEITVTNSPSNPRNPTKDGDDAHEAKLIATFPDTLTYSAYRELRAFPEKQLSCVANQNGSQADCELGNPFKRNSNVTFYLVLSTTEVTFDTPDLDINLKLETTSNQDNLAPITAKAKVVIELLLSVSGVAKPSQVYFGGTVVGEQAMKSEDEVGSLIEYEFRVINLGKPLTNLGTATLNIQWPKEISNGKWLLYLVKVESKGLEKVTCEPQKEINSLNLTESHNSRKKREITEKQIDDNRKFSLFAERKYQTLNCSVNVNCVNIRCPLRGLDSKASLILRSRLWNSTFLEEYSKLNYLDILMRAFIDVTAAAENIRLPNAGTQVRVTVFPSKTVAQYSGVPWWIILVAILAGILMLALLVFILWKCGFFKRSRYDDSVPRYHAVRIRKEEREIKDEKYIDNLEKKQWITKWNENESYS
Briefly: ELISA, 1 ug/ml.

Another experiment addresses T5, M7-2.
T5 construct: also called PD1 mutant M7-2
Briefly: scFv-phage ELISA.

The target of a further experiment is T6, M1.
T6 construct: also called PD1 mutant M1
Briefly: scFv-phage ELISA.

The target in another experiment is T7, M4.
T7 construct: also called PD1 mutant M4
As to the kind of experiment: scFv-phage ELISA.

Experiment [5] addresses T3, M11. Briefly: scFv-phage ELISA.
In the next experiment the target is T8, M12.
T8 construct: also called PD1 mutant M12
As to the kind of experiment: scFv-phage ELISA.

Another experiment concerns the target T9, M2.
T9 construct: also called PD1 mutant M2
Briefly: scFv-phage ELISA.

Experiment [6] deals with T4, ITGA6-Fc. Briefly: scFv-phage ELISA.
A further experiment deals with T10, M5-2.
T10 construct: also called PD1 mutant M5-2
Briefly: scFv-phage ELISA.

A further experiment has as its target T11, M13.
T11 construct: also called PD1 mutant M13
Briefly: scFv-phage ELISA.

Experiment [7] has as its target T12, antigen PD1 (coated, construct not stated) (UniProt Q15116 25-170, limits assumed).
T12 construct: also called PD1 antigen; PDCD1
As to the kind of experiment: scFv-phage ELISA.

The target of a further experiment is T13, M8.
T13 construct: also called PD1 mutant M8
As to the kind of experiment: scFv-phage ELISA.

The target in a further experiment is T14, M7-1.
T14 construct: also called PD1 mutant M7-1
Briefly: scFv-phage ELISA.

In a further experiment the target is T15, M3.
T15 construct: also called PD1 mutant M3
As to the kind of experiment: scFv-phage ELISA.

The target of the next experiment is T16, M6.
T16 construct: also called PD1 mutant M6
Briefly: scFv-phage ELISA.

The target of the next experiment is T17, M9.
T17 construct: also called PD1 mutant M9
As to the kind of experiment: scFv-phage ELISA.

A further experiment has as its target T18, M14.
T18 construct: also called PD1 mutant M14
Briefly: scFv-phage ELISA.

The next experiment has as its target T19, M5.
T19 construct: also called PD1 mutant M5
As to the kind of experiment: scFv-phage ELISA.

The target in the next experiment is T20, M1-1.
T20 construct: also called PD1 mutant M1-1
Briefly: scFv-phage ELISA.

The target in another experiment is T21, M1-2.
T21 construct: also called PD1 mutant M1-2
As to the kind of experiment: scFv-phage ELISA.

The next experiment concerns the target T22, M7.
T22 construct: also called PD1 mutant M7
Briefly: scFv-phage ELISA.

A further experiment has as its target T23, M5-1.
T23 construct: also called PD1 mutant M5-1
As to the kind of experiment: scFv-phage ELISA.

The target in a further experiment is T24, M2-1.
T24 construct: also called PD1 mutant M2-1
As to the kind of experiment: scFv-phage ELISA.

The next experiment deals with T25, M2-2.
T25 construct: also called PD1 mutant M2-2
As to the kind of experiment: scFv-phage ELISA.

The next experiment concerns the target T26, M10.
T26 construct: also called PD1 mutant M10
Briefly: scFv-phage ELISA.

T2 sequence (Q15116 other isoform, or with tags, fused parts or gaps limits assumed): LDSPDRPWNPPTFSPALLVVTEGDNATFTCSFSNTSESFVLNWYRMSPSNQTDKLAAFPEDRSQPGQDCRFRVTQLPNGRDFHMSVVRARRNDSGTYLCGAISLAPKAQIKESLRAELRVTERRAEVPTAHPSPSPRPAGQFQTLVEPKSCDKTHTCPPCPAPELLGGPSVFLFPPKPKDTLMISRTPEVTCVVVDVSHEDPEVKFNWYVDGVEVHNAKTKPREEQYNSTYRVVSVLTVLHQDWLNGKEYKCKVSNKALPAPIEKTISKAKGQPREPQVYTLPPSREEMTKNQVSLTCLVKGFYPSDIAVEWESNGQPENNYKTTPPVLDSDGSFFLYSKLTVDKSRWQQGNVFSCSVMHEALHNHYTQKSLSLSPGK
T1 sequence (Q15116 25-288): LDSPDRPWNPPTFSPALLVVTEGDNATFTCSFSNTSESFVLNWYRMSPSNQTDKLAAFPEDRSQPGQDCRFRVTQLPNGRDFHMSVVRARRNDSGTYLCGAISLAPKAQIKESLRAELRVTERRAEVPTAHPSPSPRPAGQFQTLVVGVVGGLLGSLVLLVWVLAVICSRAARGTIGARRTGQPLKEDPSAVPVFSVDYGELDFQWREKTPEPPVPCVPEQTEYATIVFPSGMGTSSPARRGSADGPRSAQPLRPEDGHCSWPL
T12 sequence (Q15116 25-170 limits assumed): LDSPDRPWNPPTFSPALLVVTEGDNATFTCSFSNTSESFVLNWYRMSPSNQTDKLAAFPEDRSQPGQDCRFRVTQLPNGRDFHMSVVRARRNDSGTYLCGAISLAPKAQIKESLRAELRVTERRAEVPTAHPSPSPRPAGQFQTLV

B1: PD1-49A2(A/1H8) (antibody, V domains shown)
VH: QVQLVESGGGVVQPGRSLRLSCAASGFTFKTYAMHWVRQAPGKGLEWVAVISYDGQHKYYADSVKGRFTISRDNSKNTLYLQMNSLRAEDTAVYYCTTTTFDSWGQGTLVTVSS
VL: DIVMTQTPLSLPVTPGEPASISCRSSQSLLDRDGGHTYVDWYLQKPGQSPRLLIYTLSHRALGVPDRFSGSGSGTDFTLKISRVEADDVGLYYCMQRIEFPFTFGQGTKVEIK
notes: scFv-phage in the screening ELISA; whole IgG in the other assays; also called 49A2-1H8; PD1 49A2 1H8
In turn, B1 displayed a concentration giving a half-maximal response (EC50) in experiment [1] of 1.45 nM. Besides, the “EC50 [nM], PD1/PD-L1 blockade bioassay” value in [2] was found to be 1.21 nM. In the experiment with PD1-hFc, this molecule displayed a dissociation constant (Kd) of 0.0124 nM, a koff of 2.74e-06 s⁻¹ and an association rate constant (kon) of 220000 M⁻¹ s⁻¹.

B2: mPDL2-mFC (Fc fusion, mouse (prefix m on the sheet), UniProt Q9WUL5 20-221, looked up)
ligand fused to Fc: LFTVTAPKEVYTVDVGSSVSLECDFDRRECTELEGIRASLQKVENDTSLQSERATLLEEQLPLGKALFHIPSVQVRDSGQYRCLVICGAAWDYKYLTVKVKASYMRIDTRILEVPGTGEVQLTCQARGYPLAEVSWQNVSVPANTSHIRTPEGLYQVTSVLRLKPQPSRNFSCMFWNAHMKELTSAIIDPLSRMEPKVPRTW
notes: mFC fusion
As for B2, the values for the OD490 in the experiment with M11 [3] and with ITGA6-Fc [4] were 1.7 and 0.3, respectively.

B3: PD1-45D6(A/3H7) (antibody, V domains shown)
VH: QVQLVESGGGVVQPGRSLRLSCAASGFTFSSYAMHWVRQVPGKGLEWVAVISYDGNDKYYADSVKGRFTISRDNSKNTLYLQMNSLRAEDTAVYYCVPTTFEYWGQGSQVTVSS
VL: DIVMTQTPLSLPVTPGEPASISCRSSQSLLDSDDGNTYLDWYLQKPGQSPQLLIYTLSHRASGVPGRFSGSGSGTEFNLRISRVEAEDVGIYYCMQRVEFPFTFGQGTKLEIK
notes: scFv-phage in the screening ELISA; whole IgG in the other assays; also called 45D6-3H7; PD1 45D6 3H7
B3: the response in [1] was half-maximal at 1.64 nM (EC50). Moreover, the “EC50 [nM], PD1/PD-L1 blockade bioassay” value in experiment [2] turned out to be 1.98 nM. In the experiment with PD1-hFc, this molecule registered a Kd of 0.0253 nM, a koff of 7.78e-06 s⁻¹ and a kon of 308000 M⁻¹ s⁻¹.

B4: PD1-49A2(A/2A6) (antibody, V domains shown)
VH: B1 VH with T31Y, A49T, H57Y
VL: B3 VL with P18A, D33E, K45R, L110V
notes: scFv-phage in the screening ELISA; whole IgG in the other assays; also called 49A2-2A6; PD1 49A2 2A6
Molecule B4 had a half-maximal effective concentration (EC50) in experiment [1] of 1.67 nM. Also, in experiment [2], the “EC50 [nM], PD1/PD-L1 blockade bioassay” value was determined as 1.51 nM. In the experiment with PD1-hFc, this molecule gave a Kd of 0.0691 nM, a koff of 2.14e-05 s⁻¹ and a kon of 310000 M⁻¹ s⁻¹.

B5: PD1-48A9 (antibody, V domains shown)
VH: QMQLVQSGAEVKKPGSSVKVSCKASGDTFTRYIINWVRQAPGQGLEWMGRVIPTLGLTTYAQNFQDTVTIIADKSTNTAYMELKNLRSEDTAVYYCARGYGSGAFDIWGQGTMITVSS
VL: B1 VL with R32S, D33H, G34D, H36N, V39L, R51Q, L62S, D87E, E99D, F102Y
notes: scFv-phage in the screening ELISA; whole IgG in the other assays
For the molecule B5, the OD490 with M7-2 is 0.4; with M1, 3.7; with M4, 3.9; with M11 [5] it was 0.3; in the experiment with M12, 3.9; with M2, 0.3. Also, the OD490 stood at 0.3 with ITGA6-Fc [6]; 3.9 with M5-2; 4 with M13; 2.1 in experiment [7]; 1.7 in the experiment with M8; 0.4 in the experiment with M7-1. The OD490 with M3 came to 2; with M6, 3.9; in the experiment with M9, 3.9; with M14 it was 4; in the experiment with M5, 1.3; in the experiment with M1-1, 3.8. For the same molecule, the OD490 with M1-2 came out at 3.9; with M7 it was 0.3; in the experiment with M5-1 it was 0.6; with M2-1, 3.8; in the experiment with M2-2, 3.9; in the experiment with M10 it was 3.8. Further, the “EC50 [nM], PD1/PD-L1 blockade bioassay” value in experiment [2] was found to be 8.64 nM.

B6: PD1-45D6(A/3D2) (antibody, V domains shown)
VH: B3 VH
VL: B3 VL with P18A, D33E, G66D, E76D, N78T, R80K, L110V
notes: scFv-phage in the screening ELISA; whole IgG in the other assays; also called 45D6-3D2; PD1 45D6 3D2
Consider B6, for which a half-maximal effect in experiment [1] (EC50) was put at 2 nM. For the same molecule, in experiment [2], the “EC50 [nM], PD1/PD-L1 blockade bioassay” value is 2.16 nM. For the same molecule, in the experiment with PD1-hFc, the equilibrium dissociation constant (Kd) was not above 0.001 nM, the off-rate (koff) was not above 1e-07 s⁻¹ and the kon stood at 181000 M⁻¹ s⁻¹.

B7: PD1-45D6(A/5B5) (antibody, V domains shown)
VH: B3 VH with S30R, S31T, V40A, S108T, Q109L
VL: B3 VL with T14M, P18A, D33E, G66D, E76D, N78T, R80K, E87D, L110V
notes: scFv-phage in the screening ELISA; whole IgG in the other assays; also called 45D6-5B5; PD1 45D6 5B5
Turning to B7, the concentration giving a half-maximal response (EC50) in experiment [1] was found to be 0.906 nM. Besides, the “EC50 [nM], PD1/PD-L1 blockade bioassay” value in [2] stood at 1.68 nM. In the experiment with PD1-hFc, this molecule returned an equilibrium dissociation constant (Kd) of 0.0477 nM, a koff of 1.41e-05 s⁻¹ and a kon of 296000 M⁻¹ s⁻¹.

B8: PD1-49A2(A/1B2) (antibody, V domains shown)
VH: B1 VH with K30L, T31R, H57D, Q106R
VL: B3 VL with G66D
notes: scFv-phage in the screening ELISA; whole IgG in the other assays; also called 49A2-1B2; PD1 49A2 1B2
Turning to B8, a half-maximal response in [1] (EC50) required 2.03 nM. Also, the “EC50 [nM], PD1/PD-L1 blockade bioassay” value in experiment [2] amounted to 1.3 nM. Also, in the experiment with PD1-hFc, the Kd was 0.166 nM, the koff was determined as 6.39e-05 s⁻¹ and the kon turned out to be 385000 M⁻¹ s⁻¹.

Broadly, the EC50 is the concentration giving half of the maximal effect. High values mean lower potency in that assay, low ones higher potency in that assay. Broadly, the Kd is a measure of binding affinity in units of concentration. A high value points to a looser complex. As a reminder, the koff is a measure of how fast the partners let go of each other. Broadly, the kon is the second-order rate constant of association. Read a high kon as fast association.
